Experimental data published in the DeepSol protein solubility set.

Assay: soluble on expression in E. coli; label from the status in PepcDB or PDB records

Sequence	soluble on expression in E. coli
MPCQSKKNPSEVHISSGRDLVQRTFVFSNTTGKDFLLKLITSSEAISFPTNIFRFPPSSHRVIQFRVNSSKLSHWDKLNMSIKGYVMPIYAKNLKQFIDQKSTAGTQDQEAFSLAVKFTDQYSAPQVLINLPGSATCIESMDHPVGIEELDTITAVNIEKDALTAAPIGNLMGFVEEYKRRNTNKGGCWLSNYICGGEEEQKEKKSIRGASRRSSRSSKKSAKSAGSSSCRSQSRKKNKKSQVNVCLEATPCGGSTIQA	not soluble
MAKTIAYDEEARRGLERGLNALADAVKVTLGPKGRNVVLEKKWGAPTITNDGVSIAKEIELEDPYEKIGAELVKEVAKKTDDVAGDGTTTATVLAQALVREGLRNVAAGANPLGLKRGIEKAVEKVTETLLKGAKEVETKEQIAATAAISAGDQSIGDLIAEAMDKVGNEGVITVEESNTFGLQLELTEGMRFDKGYISGYFVTDPERQEAVLEDPYILLVSSKVSTVKDLLPLLEKVIGAGKPLLIIAEDVEGEALSTLVVNKIRGTFKSVAVKAPGFGDRRKAMLQDMAILTGGQVISEEVGLTLENADLSLLGKARKVVVTKDETTIVEGAGDTDAIAGRVAQIRQEIENSDSDYDREKLQERLAKLAGGVAVIKAGAATEVELKERKHRIEDAVRNAKAAVEEGIVAGGGVTLLQAAPTLDELKLEGDEATGANIVKVALEAPLKQIAFNSGLEPGVVAEKVRNLPAGHGLNAQTGVYEDLLAAGVADPVKVTRSALQNAASIAGLFLTTEAVVADKPEKEKASVPGGGDMGGMDF	soluble
MGSDKIHHHHHHMDGEGMSVGHYENFPVGSLILPRRLRKPVHAVYAFARTADDMADEGSMPSEARLSGLEGLRRELDVLASGGRSAHPLIARLDAEAVVPFGLDLQPFYDLLSAFSQDVVKTRYAHFGDLTDYCRRSANPVGRIMLALYGKTDAVCVAQSDGICTALQLVNFWQDVAVDWQKGRVYIPQDDLLKFGVSEEQIAAGRADAAFQRLMAYECRRAFRMLKAGSPLARELKGRIGLELRMIVLGAQLILQKLDACRYDVFAQRPVLDKKDWLIMLKRALWK	not soluble
MQFEERLQQLVESDWSLDQSSPNVLVIVLGDTARKYVELGGLKEHVTTNTVAGHVASRERVSVVFLGRVKYLYMYLTRMQAQANGPQYSNVLVYGLWDLTATQDGPQQLRYLALCYGSASVCHLKLNSIQNRLLVACLPGYCDSGTILSDSCIVLHAIS	not soluble
MPRFSCYEVRSEFPELERGIVYLDNAASTLKPRRVVEAMREFSYRSYANVHRGVHRLSMEASKAYEDAHEVVARLVGGSWDEVVFTRNTTEAMQLAALTLAYNGLLRGGEVLVTAADHHSTLLPWVRAARLGGGRARILPLDGRGVPRWDLLEDYITEDTRAVAVGHVSNVTGVVAPVEDIVKAAKKVGALVVLDSAQGVPHLPVDFRRMGVDMAAFSGHKMLGPTGIGVLWARRDLLEELEPPLGGGGTVSRVRLQGGSVEIEWEEPPWKFEAGTPPIIEAVGLAEAANMLMEIGMEHVARHEDELTSHTMKLLEPLYSEGLIRYVGPDKPGERHGIVSITTHLKSPDELGLLLDRRGIAVRTGLHCAHILHDHVDASMGSVWASFYIYNCKEDAERLAEALEEILTTRR	soluble
MKVMNIIHDSVVDGEGLRTVVFFAGCPHRCVGCHNPKSWNICNGTEMTVEEIVKEIASNPLTDVTFSSGDPFFQAAEVKKVAKIGKDLKKNLWMYTGYTLEEIQSSQNNDMIELLHYGDVLVDGRFEIEEKDLTLPFRGSSNQRIIRLKELEHHHHHH	not soluble
MAKWGEGDPRWIVEERADATNVNNWHWTERDASNWSTEKLKTLFLAVRVENEEGKCEVTEVNKLDGEASINNRKGKLIFFYEWTIKLNWTGTSKSGVQYKGHVEIPNLSDENSVDEVEISVSLAKDEPDTNLVALMKEDGVKLLREAVGIYISTLKTEFTQGMILPTVNGESVDPVGQPALKTETCKAKSAPSKSQAKPVGVKIPTCKITLKETFLTSPEELYRVFTTQELVQAFTHAPAALEADRGGKFHMVDGNVTGEFTDLVPEKHIAMKWRFKSWPEGHFATITLTFIDKNGETELCMEGRGIPAPEEERTRQGWQRYYFEGIKQTFGYGARLF	soluble
MPSLGEAPQDLQRSQERRRIERIFAQGGKGVASPHRFPGPLPMLQNIPTHVIAGPLGAGKTSLIRHLLSQRPAAERWAVLINEFGQIGLDAALLTRDEDGIALGEVAGGCLCCVNGAPFQVGLGRLLRKARPDRLLIEPSGLGHPAQLLKQLNEAPWKGVLAVQPCVLVLDAQALAAGKPLPRAQQDALSSAGLLVLNKDELLSDSDRLRVLEQLPDLPLFWTRHAALPLAELPGLGASAEAALEQSDIPQGLAQLPAVWSDPTLPICLSQSQEDGWSIGWRWHPSQQFDLVRVEHWLQNLDWRRAKLVLHSDQGWRSGNGLDNSPLNWLPSEWRRDSRLELIFSSPQDIAVLQASLDACRLLEHHHHHH	not soluble
GSHMSVRIVDVREITKPISSPIRNAYIDFTKMTTSLVAVVTDVVREGKRVVGYGFNSNGRYGQGGLIRERFASRILEADPKKLLNEAGDNLDPDKVWAAMMINEKPGGHGERSVAVGTIDMAVWDAVAKIAGKPLFRLLAERHGVKANPRVFVYAAGGYYYPGKGLSMLRGEMRGYLDRGYNVVKMKIGGAPIEEDRMRIEAVLEEIGKDAQLAVDANGRFNLETGIAYAKMLRDYPLFWYEEVGDPLDYALQAALAEFYPGPMATGENLFSHQDARNLLRYGGMRPDRDWLQFDCALSYGLCEYQRTLEVLKTHGWSPSRCIPHGGHQMSLNIAAGLGLGGNESYPDLFQPYGGFPDGVRVENGHITMPDLPGIGFEGKSDLYKEMKALAE	soluble
MSLKEKKLVYLNSKQYEDAYRKKSVLLNDINNINEQYFDLKNSIKDYNKSSKDFESTKRQMEDELILNKMELGTLDVVGEGVEITLDDSGNQVSASSEDANFREIRTIYQVIHDFDMRAVINDIKCSGAEAISINGQRIVSNTEIYCNAEFLLINGVKISAPFNIKAIGNKNKLKTYMLASGNYLQRLKRRSIYVNLKTVNDVKIPAFKGELRHSNIKSKEGHHHHHH	soluble
MGSDKIHHHHHHMSINFDLNDLQAFRAVVENGSFRKAAESVRITQPALSRRIEKLESALNVKLFERTTRKVSLTTVGRAFLPQVERILDDLDIALMTIGEVGSTRMGSVTIACVPSAAYYFMPQVISAFREDYPKIRVKVLDASANEVNSAVALGEADFGVSFSGNLAPEVDFELLLQERYVMACRRDHSLAIRESVSWEEMYSHDYIALDITSGNRLVLDQALARSRPHKESICETRHVTTMIGLVEAGLGVAAVPSIAMPMTAHPFLVSVPLVEPEVIRNVGLIKRRGRTLTPAALELEQLVRKMPFRSAGN	not soluble
GGDKQEAPITKNSIAGGQSESANSTMPGIVVPIISAETSHAAGNADPDVPDTAPLAIDTALESAWQPAKGDTLVLNFAQPYVISRVIVDSPTKDMTLEVRAGDTVVGTGTVTKSRTKITVTPAPAVTSLSIRVVGVPDGVSPEINDVKLVAKI	not soluble
MSLIELRDKTILIDGRPRLVLSGEVHYFRLRREDWQDRLDKLKAAGCNTVASYIPWLCHETVEGRIDLDGRSRPELDLGAFIDLCRANGLWFIARPGPFVMAELKNEGLPYWLYEKHPEIVPVGWDGKPATTHTVDYLAPGFLDAARRWYDAVMAVITPRLQPGGGNVIALQLDNEIGMLSWLSNCPDLTENVLADFAAWLKVRHRPESLRKRYPFDPDEPEARRAGIRSPAESYALALLRDLGHYMRDRFARYVATLRSWAETAGIRGIPFVVNIHGTGGGRALSFPIGISQLYPSYTQDFGYLSGSDFYLGNLTFDNFQDLYLCNAFMEAVHRPEQPLASMEFECGDGNYGNTYGNRLDPSAADFKARMCLAQGARLLNYYLFTGGHNYRLDPPPPDGDGRIAFTGERHGFAAPVDPDGRLNYSYPRLANLTRTVAAVADKLAAMWEEHDRVAFGFIPDYFMTESRHPASAAMATIVRNLEANRGPSAWETMARAMLLGGYRFGAVDLQNRPLDVKTTPVLALGSARYMDTAVQRKLADWLSAGGGLLLYGEVPLYGMEGEPCTLLAEALGTEISGFRQASERYFLALAADGWARPRPEVRSHFAQTFAAPLAEALLRVCDTGEICGFETAVGKGRAVVIGTAYPCDIALFRTALERLGAVAALRHDCENHGIFMTSTANAAGERFIHLLNLDGFDKRFHLYEHGRPLFDGHEIELRARDGVMLPLAMREGHHHHHH	not soluble
MGSDKIHHHHHHMSRLLRSPQTGAGKLFSAASSENFSKQNLIDAVIKEARRKVMEAEFQKKFMQSWSRYFPGAELPIGFYYTDSAETKFMAKPPKRHRCIIGDLAKVRKGKPQCFDNNAIGCFGGKRYLGFESKLTPDFEYFLSCGIPGKIEGERYKKSPELVKEHLKHQQPLKAPGNYIIFKRWDQMENADIPSVVIFFAAPDVLSGLFTLANFDETHPHGVIAPFGAGCASIVDYPYKELNSPDPRSVLGMFDVSARPCVPSNVLTFAVPWPKFVRMVGNMDESFLITRSWNKVKTRIKKEHAKSNDK	not soluble
TEDFRWKTTFNYSQNRNKVVELAPNYTSFVYGDPGFSMAYMMQIKEGGSLGDIYGNTFARDEQGKIKVSDEGKPISESGNKTYLGNCNPDFLLSWANTFTYKGFSLYFLIDMRKGGDVMSLTQATLDGRGVTKATAEARDRGYVEVDGTRFENVEGFYSVVGDRNGISERYMYSATNIRLRELSLSYSFPSTLLAKTKVFTGIDVSLVGRNLFFFYKDAPFDPDAILSVGNTNQGVDVFGMPTTRNIGFNVKFTF	not soluble
MRTEGRLVRANLPLNLPSPTMRYMTPQRFGMGGTQIGNIFAPISDEQADLVLQAAWNAGVRLYDTSPFYGFGLSEYRLGRFLRGKDPADYVISTKVGRVLTAAGGARQDHAIWKSPAPFNYRYDYTAAGARRSVEDSLQRLGLPRIDIVFIHDLSPDNTELEGGWEAAYRIARTGAMVELEKMRDEGLIKAWGFGVNTPNAVVQAMGSDDPTPDIVLLACQYSLIDHSEALRNTFPALHRKGTSVVVGTPLNDGFLGGRNRYNFSLELPAGAVEKRKRIMAVAARHGIDIHTAALQFAAAHPQVSAIIPGARSPGQVMSNVQAMKVGIPAAFWAELKSQSLMDAQAPVPS	not soluble
MGKALLIVNPSSGKEKGKTYQGKTEEVLKKRYDEVEVRLTEKAGDATEFASWASEQGFDAVIAMGGDGTLNETINGLAIHEKRPDFGFIPLGTVNDLARSVGIPLKPEKAIQALEKAKAIPMDIGRIGDQ	not soluble
MTYIALIGDIIQSKQLTDRSKVQKTLAAYLDDLNKTFAPYIISKLSLTLGDEFQGLFQVDTPIFHLIDLINHHMDIPIRFGVGVGSILTDINPDISIGADGPAYWHAREAIRYIHQKNDYGNTTLALRTGHHNQDDVLNSLLAAGDAIKANWRASQWEIFDTLLDLGIYEEYFDQQRLGKQLSLSSSALSKRLKSSHVKIYLRTRQSALNCLKQIKEETDD	not soluble
MAGTRDYDHLFKLLIIGDSGVGKSSLLLRFADNTFSENYITTIGVDFKIRTMDINGQRVKLQIWDTAGQERFRTITSTYYRGTHGVVVVYDVTNGESFGNVKRWLQEIENNCDSVQKVLVGNKCEENERRVVLESDARNYAQSMNISFFETSAKEDKNVEPMFTCITSLVLTAKLANPQSASKDQSRTGGVSLKDNSGSTNQKKKCKCG	not soluble
